The source of these data is patent US10544421 (NEW YORK STRUCTURAL BIOLOGY CENTER, dated 2020).

For this test, the target named is T1, recombinant human acetylcholinesterase (rhAChE), cleaved protein from codon 33 to codon 574 (human, UniProt P22303 33-574).
T1 construct: range 33-574; Expressed in HEK 293-H cells, secreted, tag removed with his-TEV protease; also called purified rhAChE; human AChE
Briefly: co-crystal of rhAChE complexed with fasciculin-2, X-ray crystallography (PDB 4EY8). On the procedure:
A crystallization buffer 44 is provided. The preferred crystallization buffer 44 contains 15-21% polyethylene glycol (PEG) 3350 and 0.17-0.21M potassium nitrate. Crystals of rhAChE are grown by sitting drop vapor diffusion at 22° C. against the crystallization buffer 44. See Block 46. Clustered hexagonal rod-shaped crystals (20×20×600 µm) are typically nucleated within 5 days and grow to full size within 3 days. Once the crystals are full size, they are harvested and flash frozen using liquid nitrogen. See Block 48. The harvested crystals 10 can then be cut and subjected to X-ray crystallography and modeling in the traditional manner. See Block 50. Since the rhAChE crystals 10 are not complexed, the X-ray crystallography produces models that more accurately represent AChE in the human brain. Additionally, the active sites that are obfuscated by snake venom in the prior art are open and active.
Referring to FIG. 4 in conjunction with FIG. 1, it will be understood that in order to complex the rhAChE crystals 10, a small volume of the complexing ligand 52 is added to the crystallization buffer 44 to create a modified crystallization buffer 54. Crystals of complexed rhAChE are grown by sitting drop vapor diffusion against the modified crystallization buffer 54. The crystals are then grown, harvested and imaged in the manner previously described.

B1: fasciculin-2 (other)
chain: TMCYSHTTTSRAILTNCGENSCYRKSRRHPPKMVLGRGCGCPPGDDNLEVKCCTSPDKCNY
notes: Used as the complexing ligand in rhAChE crystals; also called snake venom fasciculin-2
For B1, the binding result is “binds”.
